Assay results: patent US20240392004A1 (IMMUNOWAKE, published 2024)
Changes are numbered by the printed parent chain. In names and notes the source's numbering stands. Like-named read-outs stand apart in the source and are kept apart here.

T1: human IL-2 receptor (IL-2Rα, IL-2Rβ, IL-2Rγ) (human, UniProt P01589 22-272; P14784 27-551; P31785 23-369)
T1 sequence (looked up) 1: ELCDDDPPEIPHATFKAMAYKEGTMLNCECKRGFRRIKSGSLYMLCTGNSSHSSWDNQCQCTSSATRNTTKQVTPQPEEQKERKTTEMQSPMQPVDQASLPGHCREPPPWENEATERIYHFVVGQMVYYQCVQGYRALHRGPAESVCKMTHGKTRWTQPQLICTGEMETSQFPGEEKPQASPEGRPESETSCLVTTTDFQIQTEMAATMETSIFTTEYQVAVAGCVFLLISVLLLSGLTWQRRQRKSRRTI
T1 sequence (looked up) 2: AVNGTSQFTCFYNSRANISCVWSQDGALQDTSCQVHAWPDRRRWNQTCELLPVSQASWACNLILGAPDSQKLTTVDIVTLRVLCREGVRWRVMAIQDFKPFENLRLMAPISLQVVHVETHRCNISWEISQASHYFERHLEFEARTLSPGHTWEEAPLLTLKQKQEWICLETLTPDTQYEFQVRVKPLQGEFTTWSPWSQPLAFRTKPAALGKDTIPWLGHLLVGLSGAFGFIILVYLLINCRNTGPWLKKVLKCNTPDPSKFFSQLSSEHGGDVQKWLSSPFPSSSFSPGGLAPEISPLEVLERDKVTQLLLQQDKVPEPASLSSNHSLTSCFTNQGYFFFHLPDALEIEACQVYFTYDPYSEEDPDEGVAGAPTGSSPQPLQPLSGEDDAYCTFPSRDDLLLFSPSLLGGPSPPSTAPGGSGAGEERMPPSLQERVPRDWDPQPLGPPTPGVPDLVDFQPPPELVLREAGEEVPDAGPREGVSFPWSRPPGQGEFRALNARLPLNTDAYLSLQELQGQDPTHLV
T1 sequence (looked up) 3: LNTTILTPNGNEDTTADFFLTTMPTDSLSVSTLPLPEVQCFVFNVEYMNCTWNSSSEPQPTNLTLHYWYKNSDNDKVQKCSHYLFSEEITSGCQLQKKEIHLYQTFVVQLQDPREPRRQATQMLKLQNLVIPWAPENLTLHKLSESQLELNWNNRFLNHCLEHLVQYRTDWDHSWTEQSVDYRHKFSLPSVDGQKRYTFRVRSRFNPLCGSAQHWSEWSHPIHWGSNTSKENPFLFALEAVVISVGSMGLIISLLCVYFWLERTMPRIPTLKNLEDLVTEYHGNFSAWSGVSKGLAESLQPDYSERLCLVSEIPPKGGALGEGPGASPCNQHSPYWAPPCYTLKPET

B1: IL-2(L18R/Q22E/R38D/K43E/E61R/Q126T)/PD-L1(mut2)-Fc (Fc fusion)
chain 1: FTVTVPKDLYVVEYGSNMTIECKFPVEKQLDLAALQVYWMMEDKNIIQFVHGEEDLKVQHSSYRQRARLLKDQLSLGNAALQITDVKLQDAGVYTCLIAYKGADYKRITVKVNAPYNKINQRILVVDPVTSEHELTCQAEGYPKAEVIWTSSDHQVLSGKTTTTNSKREEKLFNVTSTLRINTTTNEIFYCTFRRLDPEENHTAELVIPELPLAHPPNERGGGGSGGGDKTHTCPPCPAPEDEGGPSVFLFPPKPKDTLMISRTPEVTCVVVDVSHEDPEVKFNWYVDGVEVHNAKTKPREEQYNSTYRVVSVLTVLHQDWLNGKEYKCKVSNKALPAPIEKTISKAKGQPREPQVYVYPPSREEMTKNQVSLTCLVKGFYPSDIAVEWESNGQPENNYKTTPPVLDEDGSFALVSKLTVDKSRWQQGNVFSCSVMHEALHNHYTQKSLSLSPGK
chain 2: FTVTVPKDLYVVEYGSNMTIECKFPVEKQLDLAALQVYWMMEDKNIIQFVHGEEDLKVQHSSYRQRARLLKDQLSLGNAALQITDVKLQDAGVYTCLIAYKGADYKRITVKVNAPYNKINQRILVVDPVTSEHELTCQAEGYPKAEVIWTSSDHQVLSGKTTTTNSKREEKLFNVTSTLRINTTTNEIFYCTFRRLDPEENHTAELVIPELPLAHPPNERGGGSGAPTSSSTKKTQLQLEHLRLDLEMILNGINNYKNPKLTDMLTFEFYMPKKATELKHLQCLERELKPLEEVLNLAQSKNFHLRPRDLISNINVIVLELKGSETTFMCEYADETATIVEFLNRWITFCTSIISTLTGGGGSGGGDKTHTCPPCPAPEKKGGPSVFLFPPKPKDTLMISRTPEVTCVVVDVSHEDPEVKFNWYVDGVEVHNAKTKPREEQYNSTYRVVSVLTVLHQDWLNGKEYKCKVSNKALPAPIEKTISKAKGQPREPQVYVLPPSREEMTKNQVSLLCLVKGFYPSDIAVEWESNGQPENRYMTWPPVLDSDGSFFLYSKLTVDKSRWQQGNVFSCSVMHEALHNHYTQKSLSLSPGK
B2: IL-2(R38D/K43E/E61R/Q126T)/IL-12(E59A/F60A)/PD-L1(mut2)-Fc (Fc fusion)
chain 1: FTVTVPKDLYVVEYGSNMTIECKFPVEKQLDLAALQVYWMMEDKNIIQFVHGEEDLKVQHSSYRQRARLLKDQLSLGNAALQITDVKLQDAGVYTCLIAYKGADYKRITVKVNAPYNKINQRILVVDPVTSEHELTCQAEGYPKAEVIWTSSDHQVLSGKTTTTNSKREEKLFNVTSTLRINTTTNEIFYCTFRRLDPEENHTAELVIPELPLAHPPNERGGGGSGGGIWELKKDVYVVELDWYPDAPGEMVVLTCDTPEEDGITWTLDQSSEVLGSGKTLTIQVKAAGDAGQYTCHKGGEVLSHSLLLLHKKEDGIWSTDILKDQKEPKNKTFLRCEAKNYSGRFTCWWLTTISTDLTFSVKSSRGSSDPQGVTCGAATLSAERVRGDNKEYEYSVECQEDSACPAAEESLPIEVMVDAVHKLKYENYTSSFFIRDIIKPDPPKNLQLKPLKNSRQVEVSWEYPDTWSTPHSYFSLTFCVQVQGKSKREKKDRVFTDKTSATVICRKNASISVRAQDRYYSSSWSEWASVPCSGGGGSGGGSGGGGSRNLPVATPDPGMFPCLHHSQNLLRAVSNMLQKARQTLEFYPCTSEEIDHEDITKDKTSTVEACLPLELTKNESCLNSRETSFITNGSCLASRKTSFMMALCLSSIYEDLKMYQVEFKTMNAKLLMDPKRQIFLDQNMLAVIDELMQALNFNSETVPQKSSLEEPDFYKTKIKLCILLHAFRIRAVTIDRVMSYLNASGGGGSGGGDKTHTCPPCPAPEDEGGPSVFLFPPKPKDTLMISRTPEVTCVVVDVSHEDPEVKFNWYVDGVEVHNAKTKPREEQYNSTYRVVSVLTVLHQDWLNGKEYKCKVSNKALPAPIEKTISKAKGQPREPQVYVYPPSREEMTKNQVSLTCLVKGFYPSDIAVEWESNGQPENNYKTTPPVLDEDGSFALVSKLTVDKSRWQQGNVFSCSVMHEALHNHYTQKSLSLSPGK
chain 2: B1 chain 2 with R243L, E247Q
B3: IL-2(L18R/Q22E/R38D/K43E/E61R)/IL-12(E59A/F60A)/PD-L1(mut2)-Fc (Fc fusion)
chain 1: B2 chain 1
chain 2: B1 chain 2 with T351Q
B4: IL-2(L18R/Q22E/R38D/K43E/E61R/Q126T/S130R)/PD-L1(mut2)-Fc (Fc fusion)
chain 1: B1 chain 1
chain 2: B1 chain 2 with S355R
B5: PD-L1(mut2)-Fc/IL-12(E59A/F60A) (IL-12 at C' of Fc) (Fc fusion)
chain 1: FTVTVPKDLYVVEYGSNMTIECKFPVEKQLDLAALQVYWMMEDKNIIQFVHGEEDLKVQHSSYRQRARLLKDQLSLGNAALQITDVKLQDAGVYTCLIAYKGADYKRITVKVNAPYNKINQRILVVDPVTSEHELTCQAEGYPKAEVIWTSSDHQVLSGKTTTTNSKREEKLFNVTSTLRINTTTNEIFYCTFRRLDPEENHTAELVIPELPLAHPPNERGGGGSGGGDKTHTCPPCPAPEDEGGPSVFLFPPKPKDTLMISRTPEVTCVVVDVSHEDPEVKFNWYVDGVEVHNAKTKPREEQYNSTYRVVSVLTVLHQDWLNGKEYKCKVSNKALPAPIEKTISKAKGQPREPQVYVYPPSREEMTKNQVSLTCLVKGFYPSDIAVEWESNGQPENNYKTTPPVLDEDGSFALVSKLTVDKSRWQQGNVFSCSVMHEALHNHYTQKSLSLSPGKGGGGSGGGIWELKKDVYVVELDWYPDAPGEMVVLTCDTPEEDGITWTLDQSSEVLGSGKTLTIQVKAAGDAGQYTCHKGGEVLSHSLLLLHKKEDGIWSTDILKDQKEPKNKTFLRCEAKNYSGRFTCWWLTTISTDLTFSVKSSRGSSDPQGVTCGAATLSAERVRGDNKEYEYSVECQEDSACPAAEESLPIEVMVDAVHKLKYENYTSSFFIRDIIKPDPPKNLQLKPLKNSRQVEVSWEYPDTWSTPHSYFSLTFCVQVQGKSKREKKDRVFTDKTSATVICRKNASISVRAQDRYYSSSWSEWASVPCSGGGGSGGGSGGGGSRNLPVATPDPGMFPCLHHSQNLLRAVSNMLQKARQTLEFYPCTSEEIDHEDITKDKTSTVEACLPLELTKNESCLNSRETSFITNGSCLASRKTSFMMALCLSSIYEDLKMYQVEFKTMNAKLLMDPKRQIFLDQNMLAVIDELMQALNFNSETVPQKSSLEEPDFYKTKIKLCILLHAFRIRAVTIDRVMSYLNAS
chain 2: B1 chain 1 with D242K, E243K, Y359L, T374L, N398R, K400M, T402W, E408S, A413F, V415Y
B6: IL-2(L18R/Q22E/R38D/K43E/E61R)/PD-L1(mut2)-Fc/IL-12(E59A/F60A) (Fc fusion)
chain 1: B5 chain 1
chain 2: B1 chain 2 with T351Q

Assays:
Assay in all cases: cell-based or functional assay
[1] = target: T2, human PD-1 on cells (HEK-PD-1 reporter cells; activated PBMC) (human, UniProt Q15116 25-288)
T2 sequence (Q15116 25-288): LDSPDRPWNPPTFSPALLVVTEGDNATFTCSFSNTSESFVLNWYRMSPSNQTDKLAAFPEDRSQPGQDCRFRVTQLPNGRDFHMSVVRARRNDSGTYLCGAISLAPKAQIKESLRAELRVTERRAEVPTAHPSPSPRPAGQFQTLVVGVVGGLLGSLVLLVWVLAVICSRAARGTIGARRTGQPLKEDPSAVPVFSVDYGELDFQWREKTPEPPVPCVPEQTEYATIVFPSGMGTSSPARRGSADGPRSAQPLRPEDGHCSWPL

[2] = target: T1, human IL-2 receptor (IL-2Rα, IL-2Rβ, …)
[3] = target: T2, human PD-1 on cells (HEK-PD-1 reporter …); remark: listed apart in the source
[4] = target: T1, human IL-2 receptor (IL-2Rα, IL-2Rβ, …); remark: listed apart in the source
[5] = target: human IL-12 receptor complex (IL-12Rβ1 and IL-12Rβ2) (human, UniProt P42701 24-662; Q99665 24-862)
Sequence of human IL-12 receptor complex (IL-12Rβ1 and IL-12Rβ2) (Q99665 24-862, chain 2 of 2, other chains not shown): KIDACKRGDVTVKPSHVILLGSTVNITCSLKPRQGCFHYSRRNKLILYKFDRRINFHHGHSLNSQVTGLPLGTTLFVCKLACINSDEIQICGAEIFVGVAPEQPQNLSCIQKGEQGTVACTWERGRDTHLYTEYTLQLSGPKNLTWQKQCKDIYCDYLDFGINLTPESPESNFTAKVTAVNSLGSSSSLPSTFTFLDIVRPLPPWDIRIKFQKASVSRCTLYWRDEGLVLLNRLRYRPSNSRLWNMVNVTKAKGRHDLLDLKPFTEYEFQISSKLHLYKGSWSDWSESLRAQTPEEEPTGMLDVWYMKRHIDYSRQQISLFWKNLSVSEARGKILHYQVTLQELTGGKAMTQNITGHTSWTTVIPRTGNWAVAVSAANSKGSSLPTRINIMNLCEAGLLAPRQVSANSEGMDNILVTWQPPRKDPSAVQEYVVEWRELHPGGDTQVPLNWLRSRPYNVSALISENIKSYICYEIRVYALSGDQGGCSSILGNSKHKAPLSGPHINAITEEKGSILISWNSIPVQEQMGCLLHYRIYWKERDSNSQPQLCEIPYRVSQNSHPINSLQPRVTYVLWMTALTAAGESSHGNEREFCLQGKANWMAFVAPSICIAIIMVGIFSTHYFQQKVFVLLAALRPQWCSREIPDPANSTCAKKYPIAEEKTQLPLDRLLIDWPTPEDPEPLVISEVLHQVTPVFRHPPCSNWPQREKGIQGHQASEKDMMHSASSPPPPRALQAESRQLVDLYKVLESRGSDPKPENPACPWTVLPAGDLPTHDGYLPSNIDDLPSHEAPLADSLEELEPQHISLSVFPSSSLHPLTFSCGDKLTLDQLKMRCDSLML

| IL-2 signal transduction, HEK-IL-2-PD-1 [1] [%] | IL-2 signal transduction, HEK-IL-2 [2] [%] | IL-2 signal transduction, HEK-IL-2-PD-1 [3] [%] | IL-12 signal transduction, HEK-IL-12-PD-1 [3] [%] | IL-2 signal transduction, HEK-IL-2 [4] [%] | IL-12 signal transduction, HEK-IL-12 [5] [%] | Binder |
| --- | --- | --- | --- | --- | --- | --- |
| 5 | < 0.1 | – | – | – | – | B1 |
| – | – | 20 | 25 | 2 | < 0.2 | B2 |
| – | – | 35 | 19 | 4 | < 0.2 | B3 |
| < 0.1 | < 0.1 | – | – | – | – | B4 |
| – | – | < 0.1 | 25 | < 0.1 | 1 | B5 |
| – | – | 32 | 27 | 3 | 2 | B6 |
